Tests used:
[1] = target: MOG-reactive B-cell receptor on B cells of anti-MOG transgenic mice; assay: cell-based or functional assay
[2] = target: MOG-reactive B-cell receptor on B cells of anti-MOG transgenic mice; assay: flow cytometry on splenocytes, goat-anti-human IgG FITC

## MOG-Fc fusion protein
[1]
  ex vivo B cell depletion, splenocytes of anti-MOG transgenic mice, 10 µg/ml, 16 h: 70%
[2]
  percent of IgM-positive splenocytes that bound (% of IgM-positive splenocytes): > 90
